# B1: PSMB952 (antibody, V domains shown)
# VH: EVQLVESGGGLVQPGGSLRLSCAASGFTFSSYAMSWVRQAPGKGLEWVSAISGGIGSTYYADSVKGRFTISRDNSKNTLWLQMNSLRAEDTAVYYCAKDGVGATPYYFDYWGQGTLVTVSS
# VL: QSVLTQPPSVSAAPGQKVTISCSGSSSNIGINYVSWYQQLPGTAPKLLIYDNNKRPSGIPDRFSGSKSGTSATLGITGLQTGDEADYYCGTWDSSLSAVVFGGGTKLTVL
# B2: PSMB956 (antibody, V domains shown)
# VH: EVQLVESGGGLVQPGGSLRLSCAASGFTFSSYAMSWVRQAPGKGLEWVSAISGGSGSTYYADSVKGRFTISRDNSKNTLYLQMNSLRAEDSAVYYCAKDGVGATPYYFDYWGQGTLVTVSS
# VL: QSVLTQPPSVSAAPGQKVTISCSGSSSNIGINYVSWYQQLPGTAPKLLIYDNNKRPSGIPDRFSGSKSGTSATLGITGLQTGDEADYYCGTWDSSLSAVVFGGGTKLTVL
# B3: KL2B870 (KL2B30 in hIgG1-RE) (antibody)
# heavy: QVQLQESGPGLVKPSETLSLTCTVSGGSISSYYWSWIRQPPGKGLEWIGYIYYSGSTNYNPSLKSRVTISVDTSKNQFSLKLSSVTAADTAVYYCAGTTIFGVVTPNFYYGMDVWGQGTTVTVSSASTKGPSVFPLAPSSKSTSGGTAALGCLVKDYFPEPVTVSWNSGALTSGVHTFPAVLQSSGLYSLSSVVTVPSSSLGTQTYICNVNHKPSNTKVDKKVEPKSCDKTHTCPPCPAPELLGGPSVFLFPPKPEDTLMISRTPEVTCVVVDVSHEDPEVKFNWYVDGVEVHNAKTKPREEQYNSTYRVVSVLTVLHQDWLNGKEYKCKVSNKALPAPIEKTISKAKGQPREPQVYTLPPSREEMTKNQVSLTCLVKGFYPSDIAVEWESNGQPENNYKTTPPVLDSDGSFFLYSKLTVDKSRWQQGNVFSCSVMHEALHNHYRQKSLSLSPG
# light: DIQMTQSPSFLSASVGDRVTITCRASQGISSYLAWYQQKPGKAPKFLIYAASTLQSGVPSRFSGSGSGTEFTLTISSLQPEDFATYYCQQLNSYPLTFGGGTKVEIKRTVAAPSVFIFPPSDEQLKSGTASVVCLLNNFYPREAKVQWKVDNALQSGNSQESVTEQDSKDSTYSLSSTLTLSKADYEKHKVYACEVTHQGLSSPVTKSFNRGEC
# B4: KL2B872.CLF (antibody, human IgG1, kappa)
# heavy: not shown
# light: DIQMTQSPSFLSASVGDRVTITCRASQGISSYLAWYQQKPGKAPKFLIYAASTLQSGVPSRFSGSGSGTEFTLTISSLQPEDFATYYCQQLNSYPLTFGGGTKVEIKRTVAAPSVFIFPPSDEQLKSGTASVVCLLNNFYPREAKVQWKVDNALQSGNSQESVTEQDSKDSTYSLSSTLTLSKADYEKHKVYACEVTHQGLSSPVTKSFNRGEC
# modifications: low fucosylation of the Asn-297-linked N-oligosaccharide (expressed in fucosylation-deficient cells)
# B5: KL2B870.CLF (antibody, human IgG1, kappa)
# heavy: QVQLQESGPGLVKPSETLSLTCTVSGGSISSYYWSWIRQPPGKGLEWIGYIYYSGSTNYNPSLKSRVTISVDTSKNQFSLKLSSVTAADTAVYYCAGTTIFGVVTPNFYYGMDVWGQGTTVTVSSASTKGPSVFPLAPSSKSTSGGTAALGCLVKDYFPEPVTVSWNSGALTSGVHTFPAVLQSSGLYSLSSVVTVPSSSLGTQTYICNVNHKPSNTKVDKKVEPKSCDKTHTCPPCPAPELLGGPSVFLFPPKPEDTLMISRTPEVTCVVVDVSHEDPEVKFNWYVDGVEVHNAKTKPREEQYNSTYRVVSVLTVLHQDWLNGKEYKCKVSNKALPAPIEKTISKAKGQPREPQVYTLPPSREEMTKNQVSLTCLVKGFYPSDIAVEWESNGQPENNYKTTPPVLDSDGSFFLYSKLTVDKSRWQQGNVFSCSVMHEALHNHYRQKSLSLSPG
# light: DIQMTQSPSFLSASVGDRVTITCRASQGISSYLAWYQQKPGKAPKFLIYAASTLQSGVPSRFSGSGSGTEFTLTISSLQPEDFATYYCQQLNSYPLTFGGGTKVEIKRTVAAPSVFIFPPSDEQLKSGTASVVCLLNNFYPREAKVQWKVDNALQSGNSQESVTEQDSKDSTYSLSSTLTLSKADYEKHKVYACEVTHQGLSSPVTKSFNRGEC
# modifications: low fucosylation of the Asn-297-linked N-oligosaccharide (expressed in fucosylation-deficient cells)
# How the values were obtained:
# Assay in all cases: cell-based or functional assay
# [1] = biological target: PSMA on C42B and LNCap cells (UniProt Q04609 1-750, limits assumed)
# Sequence of PSMA on C42B and LNCap cells (Q04609 whole entry): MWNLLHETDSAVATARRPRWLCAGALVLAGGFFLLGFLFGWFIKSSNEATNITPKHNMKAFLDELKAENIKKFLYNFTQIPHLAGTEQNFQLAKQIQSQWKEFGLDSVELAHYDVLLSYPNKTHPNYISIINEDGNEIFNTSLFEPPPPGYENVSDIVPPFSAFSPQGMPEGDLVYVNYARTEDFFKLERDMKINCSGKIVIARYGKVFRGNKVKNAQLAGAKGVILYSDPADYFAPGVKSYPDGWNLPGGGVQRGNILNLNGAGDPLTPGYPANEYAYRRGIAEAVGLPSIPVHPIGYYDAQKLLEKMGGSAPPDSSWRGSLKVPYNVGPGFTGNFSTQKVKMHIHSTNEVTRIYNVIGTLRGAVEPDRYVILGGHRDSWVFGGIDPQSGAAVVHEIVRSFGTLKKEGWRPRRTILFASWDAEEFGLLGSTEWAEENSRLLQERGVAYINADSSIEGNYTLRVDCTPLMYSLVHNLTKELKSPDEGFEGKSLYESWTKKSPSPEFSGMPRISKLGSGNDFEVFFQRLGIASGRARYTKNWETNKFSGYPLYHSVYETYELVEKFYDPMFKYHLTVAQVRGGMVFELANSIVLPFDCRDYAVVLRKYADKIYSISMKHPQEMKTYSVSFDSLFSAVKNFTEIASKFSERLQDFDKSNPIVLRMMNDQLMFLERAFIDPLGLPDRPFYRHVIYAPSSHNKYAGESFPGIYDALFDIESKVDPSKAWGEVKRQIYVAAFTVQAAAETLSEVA
# KLK2 on VCaP cells [2] = biological target: T1, KLK2 on VCaP cells (UniProt P20151 25-261, limits assumed)
# T1 sequence (P20151 25-261 limits assumed): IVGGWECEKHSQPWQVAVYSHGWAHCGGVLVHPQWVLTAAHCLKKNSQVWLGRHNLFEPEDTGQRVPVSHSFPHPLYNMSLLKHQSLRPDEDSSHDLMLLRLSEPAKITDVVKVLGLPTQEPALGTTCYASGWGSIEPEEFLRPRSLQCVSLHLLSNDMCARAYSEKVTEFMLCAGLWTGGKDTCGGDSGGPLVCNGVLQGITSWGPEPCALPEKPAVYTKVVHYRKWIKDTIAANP
# KLK2 on VCaP cells [3] = biological target: T1, KLK2 on VCaP cells; remark: listed apart in the source
Binder,"In vitro ADCC killing EC50 (M), NK cells at 24 hour, C42B cells [1] [M]","In vitro ADCC killing EC50 (M), NK cells at 24 hour, LNCap cells [1] [M]","In vitro ADCC killing EC50 (M), PBMC at 6 hour, C42B cells [1] [M]","In vitro ADCC killing EC50 (M), PBMC at 6 hour, LNCap cells [1] [M]","EC50 (M), in vitro ADCC dose-response killing by PBMC on VcaP cells at 48 hour (KLK2 on VCaP cells [2]) [M]","ADCC activity, percent cell killing of VcaP cells by PBMC (KLK2 on VCaP cells [3]) [%]"
B1,2.45e-11,4.59e-11,3.51e-10,2.01e-10,,
B2,9.96e-12,3.58e-11,4.23e-10,1.52e-10,,
B3,,,,,1e-09,~73
B4,,,,,4.12e-10,~85
B5,,,,,3.54e-10,~89
